We go through four molecules from US20230011916A1, “METHODS OF CANCER TREATMENT USING ANTI-OX40 ANTIBODIES IN COMBINATION WITH PI3 KINASE DELTA INHIBITORS” (BEIGENE, LTD., priority 2019, published 2023).

One test deals with A20 cells. Kind of test: A20 syngeneic B cell lymphoma model in BALB/c mice. The class given is in vivo, mouse. Particulars: Compound 1 10 mg/kg p.o. How it is done: A20 cells are of B cell lymphoma origin. Female BALB/c mice were subcutaneously implanted with 1×10^5 A20 cells in 150 μL PBS mice in the right flank. After inoculation, mice were randomized into 4 groups with 25 animals in each group according to inoculation order. The mice were treated with vehicle (0.5% MC), OX86 (a murine specific anti-OX40 antibody), Compound 1, and the combination of OX86 and Compound 1. OX86 was given at 0.4 mg/kg once a week by intraperitoneal injection, and Compound 1 was administered at 10 mg/kg twice a day by oral gavage. Tumor volume was determined twice weekly and the TGI calculated as described above.

The target in test [1] is T1, interaction between OX40 and OX40 ligand (Mus musculus, UniProt P47741).
T1 sequence (P47741 20-272): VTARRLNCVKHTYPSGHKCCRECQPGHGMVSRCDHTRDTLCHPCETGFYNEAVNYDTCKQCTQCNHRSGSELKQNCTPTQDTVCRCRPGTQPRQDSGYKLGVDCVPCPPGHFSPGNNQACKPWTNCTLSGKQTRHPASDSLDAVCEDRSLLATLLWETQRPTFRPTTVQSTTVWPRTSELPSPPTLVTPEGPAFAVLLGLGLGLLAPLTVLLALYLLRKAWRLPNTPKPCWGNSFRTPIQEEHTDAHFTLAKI
T1 sequence (P43488 1-198 partner): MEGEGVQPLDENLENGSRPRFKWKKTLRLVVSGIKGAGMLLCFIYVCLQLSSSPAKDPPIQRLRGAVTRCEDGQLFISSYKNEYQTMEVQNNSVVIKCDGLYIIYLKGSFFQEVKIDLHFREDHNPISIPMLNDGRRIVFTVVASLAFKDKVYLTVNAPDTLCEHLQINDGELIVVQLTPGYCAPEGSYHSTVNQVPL
Particulars: reported in the scientific literature; cited from earlier work.

A further test deals with EMT-6 cells. The test can be described thus: EMT-6 syngeneic breast cancer model in BALB/c mice. The class given is in vivo, mouse. On the procedure:
EMT-6 cells are of murine breast cancer origin. Female BALB/c mice were implanted intramammary with 5×10^4 EMT-6 cells per 100 μL PBS mice in the second right papilla. After inoculation, mice were randomized into 4 groups with 25 animals in each group according to inoculation order.
The mice were treated with vehicle (0.5% MC), OX86 (a murine specific anti-OX40 antibody), Compound 1 (PI3Kdelta inhibitor), and the combination of OX86 and Compound 1, respectively. OX86 was given at 0.4 mg/kg once per week (QW) by intraperitoneal (i.p.) injection, and Compound 1 was administered at 30 mg/kg twice per day (BID) by oral gavage (p.o.). Tumor volume was determined twice weekly and tumor growth inhibition was determined using the formula described in Example 14 above.

The target in test [2] is T2, recombinant OX40 protein with a His tag (Homo sapiens, UniProt P43489).
T2 construct: His tag; purchased Sino Biological 10481-H08H
T2 sequence (P43489 29-277): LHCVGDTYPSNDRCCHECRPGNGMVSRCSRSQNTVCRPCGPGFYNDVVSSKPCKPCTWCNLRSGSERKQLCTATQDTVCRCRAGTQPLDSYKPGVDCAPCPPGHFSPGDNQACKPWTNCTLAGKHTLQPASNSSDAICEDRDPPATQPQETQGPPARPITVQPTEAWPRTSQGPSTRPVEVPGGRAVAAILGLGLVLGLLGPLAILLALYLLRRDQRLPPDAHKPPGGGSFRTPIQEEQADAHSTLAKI
The test can be described thus: Binding kinetics and affinity of anti-OX40 antibodies by SPR (BIAcore T-200). The text has this:
The anti-OX40 antibodies were characterized for their binding kinetics and affinity by SPR assays using BIAcore™ T-200 (GE Life Sciences). Briefly, anti-human IgG antibody was immobilized on an activated CM5 biosensorchip (Cat: BR100530, GE Life Sciences). An antibody with human IgG Fc region was flowed over the chip surface and captured by anti-human IgG antibody. Then a serial dilution of recombinant OX40 protein with a His tag (Cat: 10481-H08H, Sino Biological) was flowed over the chip surface and changes in surface plasmon resonance signals were analyzed to calculate the association rates (ka) and dissociation rates (kd) by using the one-to-one Langmuir binding model (BIA Evaluation Software, GE Life Sciences). The equilibrium dissociation constant (KD) was calculated as the ratio kd/ka.
Background: SPR reads the build-up and loss of mass on a sensor chip optically.

Where [3] appears, read: OX86 0.4 mg/kg QW i.p., Compound 1 30 mg/kg BID p.o.

Changes are numbered by the printed parent chain.

B1: OX86: rat anti-mouse OX40 antibody (WO2016/057667) engineered with mouse IgG2a constant regions; VH SEQ ID NO: 32, VL SEQ ID NO: 33 (antibody, V domains shown)
VH: QVQLKESGPGLVQPSQTLSLTCTVSGFSLTGYNLHWVRQPPGKGLEWMGRMRYDGDTYYNSVLKSRLSISRDTSKNQVFLKMNSLQTDDTAIYYCTRDGRGDSFDYWGQGVMVTVSS
VL: DIVMTQGALPNPVPSGESASITCRSSQSLVYKDGQTYLNWFLQRPGQSPQLLTYWMSTRASGVSDRFSGSGSGTYFTLKISRVRAEDAGVYYCQQVREYPFTFGSGTKLEIK
modifications: mouse IgG2a constant regions
Consider B1, for which, in the test on A20 cells (OX86 0.4 mg/kg QW i.p.), the “Mean Tumor Volume on Day 26 (mean ± SEM)” value was determined as 53.4 ± 28.7 mm^3 and the “Tumor Free Animals at Day 47” value came to 80%. Further, the “TGI on Day 26” value with A20 cells (OX86 0.4 mg/kg QW×4 i.p.) is 93%. In addition, in test [1], the “Blocking of the interaction between OX40 and OX40 ligand” value is “does not block the interaction between OX40 and OX40 ligand”. For the same molecule, in the test with EMT-6 cells (setting [3]), the “Mean Tumor Volume on Day 22 (mean ± SEM)” value was determined as 210.5 ± 43.9 mm^3 and the “Tumor Free Animal” value was found to be 40%. Also, in the test with EMT-6 cells (OX86 0.4 mg/kg QW×4 i.p., Compound 1 30 mg/kg BID×22 p.o.), the “TGI on Day 22” value is on record as 79%.

B2: ch445: Mu445 variable domains fused to human IgG1wt/kappa constant regions (antibody, V domains shown)
VH: EVQLQQSGPELVKPGASVKMSCKASGYKFTSYIIHWVKQKPGQGLEWIGYINPYNDGTRYNEKFKGKATLTSDKSSSTAYMEYSSLTSEDSAVYYCARGYYGSSYAMDYWGQGTSVTVSS
VL: DIQMTQTTSSLSASLGDRVTISCSASQGISNYLNWYQQKPDGTIKLLIYDTSTLYSGVPSRFSGSGSGTDYFLTISNLEPEDIATYYCQQYSKLPYTFGGGTKLEKK
Consider B2, for which the KA in test [2] (Mean) was 1.41e+08 M⁻¹; in test [2] (Test 1), 1.22e+08 M⁻¹; in test [2] (Test 2), 1.59e+08 M⁻¹. Also, the ka was 174000 M⁻¹ s⁻¹ in test [2] (Test 1) and 265000 M⁻¹ s⁻¹ in test [2] (Test 2). For the same molecule, the kd came out at 0.00143 s⁻¹ in test [2] (Test 1) and 0.00167 s⁻¹ in test [2] (Test 2).

B3: 445-1: humanized anti-OX40 antibody, human IgG1 wt, VH SEQ ID NO: 14, VL SEQ ID NO: 16 (antibody, V domains shown)
VH: QVQLVQSGAEVKKPGSSVKVSCKASGYKFTSYIIHWVRQAPGQGLEWMGYINPYNDGTRYNQKFQGRVTLTSDKSTSTAYMELSSLRSEDTAVYYCARGYYGSSYAMDYWGQGTTVTVSS
VL: DIQMTQSPSSLSASVGDRVTITCSASQGISNYLNWYQQKPGKAIKLLIYDTSTLYSGVPSRFSGSGSGTDYTLTISSLQPEDFATYYCQQYSKLPYTFGGGTKVEIK
modifications: human IgG1 constant regions; 445-1 VH pro; 445-1 VK pro
Take B3: the KA in test [2] (Mean) was determined as 5.9e+07 M⁻¹. In test [2] (Test 1), the KA was determined as 5.6e+07 M⁻¹, the ka is 156000 M⁻¹ s⁻¹ and the kd was found to be 0.00277 s⁻¹. Besides, in test [2] (Test 2), the KA was determined as 6.1e+07 M⁻¹, the ka is 237000 M⁻¹ s⁻¹ and the kd was determined as 0.00389 s⁻¹.

B4: 445-2: humanized anti-OX40 antibody, VH SEQ ID NO: 20, VL SEQ ID NO: 22 (antibody, V domains shown)
VH: B3 VH with D56E, N61A, S72A
VL: B3 VL with T51A, Y71F
modifications: 445-2 VH pro; 445-2 VK pro
On to B4, for which the KA in test [2] (Mean) was 7.5e+07 M⁻¹. Besides, in test [2] (Test 1), the KA came to 7.1e+07 M⁻¹, the ka stood at 276000 M⁻¹ s⁻¹ and the kd worked out at 0.0039 s⁻¹. Also, in test [2] (Test 2), the KA was found to be 7.8e+07 M⁻¹, the ka was 206000 M⁻¹ s⁻¹ and the kd turned out to be 0.00264 s⁻¹.
